Experimental data taken from the Human Domainome abundance scans (Beltran et al. 2025).

B1: RAS guanyl-releasing protein 1, residues 539 to 593; numbered along this chain, O95267 (parent)
chain: GFPHNFQETTYLKPTFCDNCAGFLWGVIKQGYRCKDCGMNCHKQCKDLVVFECKK

Variants of: B1
Assay: abundance fitness (aPCA) (normalised: wild type 0, dead -1); higher = more abundant; growth selection in yeast, the domain comes from the species named
Conditions: Homo sapiens

Abundance fitness: each site, then its substitutions
C45: H -0.446, A -0.527, K -0.643, F -0.514, L -0.976, M -0.57, V -0.621, N -0.647, Y -0.575, E 0.068, S -0.486, I -0.554, D -0.036, R -0.773, P -0.977, W -0.772, G -0.347
F51: V -0.046, M -0.029, S 0.011, T -0.435, G 0.033, W -0.09, H -0.426, E -0.044, N 0.256, R -0.008, P -0.07, A -0.074, Y 0.05, L -0.053, C -0.061, Q 0.002, D -0.043, K -0.155
K46: H 0.096, Y -0.052, V -0.251, P -0.147, C 0.129, S -0.078, L -0.007, N -0.337, E -0.013, G -0.018, F -0.228, D -0.541, M 0.208, A -0.09, T -0.069, R -0.01, W -0.032
E52: T -0.037, Q -0.166, A -0.068, G -0.031, H -0.053, L -0.168, F 0.184, I -0.063, N -0.174, S -0.203, K -0.057, C -0.115, M -0.121, W -0.267, V -0.148, D 0.104, P -0.066
V49: C -0.229, A 0.041, E -0.001, G -0.122, L -0.276, H 0.229, T -0.055, P -0.174, I -0.319, W 0.038, R 0.094, N 0.035, F 0.002, Q -0.071, M -0.446
K43: C -0.053, W -0.481, L -0.066, N -0.417, M -0.031, F -0.24, A -0.049, E -0.002, S -0.006, D 0.011, R -0.094, I 0.232, T -0.024, G -0.074, P -0.146
Q44: D 0.125, F 0.072, Y 0.128, L -0.057, V 0.079, P -0.119, N -0.238, R 0.047, W 0.003, T -0.226, H 0.083, E 0.131, I -0.294, K 0.043, A 0.011, C 0.011, M -0.001, S 0.149
K55: S 0.077, E -0.242, D -0.528, H -0.597, N -0.138, L -0.718, R -0.435, G -0.084, T -0.271
C53: D -0.061, K -0.257, Q 0.043, I -0.297, N 0.13, H -0.009, V -0.103, M -0.095, F -0.32, R -0.255, W -0.082, Y -0.198, E -0.209, L 0.021, T -0.245
H42: Y -0.892
L48: I -0.378, T -0.047, M 0.055, P -0.15, V -0.049, C 0.069, Q 0.031, Y 0.007, F 0.018, H -0.209, N -0.295, R -0.136, S 0.058, K 0.011, W -0.052, A 0.023, E -0.061, G 0.074
V50: I -0.541, M 0.043, R -0.11, Y -0.231, P -0.157, D -0.208, H -0.214
